Test results published in PMC2912378 (PLoS ONE, 2010).

Biological target: T1, RelA (p65) (endogenous, BV-2 microglial cells) (mouse (endogenous in BV-2), UniProt Q04207 1-549)
T1 construct: NF-kappa B family member RelA (p65), endogenous in the murine microglial cell line BV-2; source: endogenous, BV-2 whole cell lysate
Assay: co-IP; whole cell lysates of BV-2 cells, untreated or treated with Tat (100nM) for 4h or 8h; immunoprecipitation with a RelA-specific antibody and Protein A/G+ agarose beads, 4°C, washed with ELB lysis buffer; immunoblot with RelB-specific antibody; densitometry normalised to precipitated RelA
Details: partners not purified

T1 sequence (Q04207 whole entry): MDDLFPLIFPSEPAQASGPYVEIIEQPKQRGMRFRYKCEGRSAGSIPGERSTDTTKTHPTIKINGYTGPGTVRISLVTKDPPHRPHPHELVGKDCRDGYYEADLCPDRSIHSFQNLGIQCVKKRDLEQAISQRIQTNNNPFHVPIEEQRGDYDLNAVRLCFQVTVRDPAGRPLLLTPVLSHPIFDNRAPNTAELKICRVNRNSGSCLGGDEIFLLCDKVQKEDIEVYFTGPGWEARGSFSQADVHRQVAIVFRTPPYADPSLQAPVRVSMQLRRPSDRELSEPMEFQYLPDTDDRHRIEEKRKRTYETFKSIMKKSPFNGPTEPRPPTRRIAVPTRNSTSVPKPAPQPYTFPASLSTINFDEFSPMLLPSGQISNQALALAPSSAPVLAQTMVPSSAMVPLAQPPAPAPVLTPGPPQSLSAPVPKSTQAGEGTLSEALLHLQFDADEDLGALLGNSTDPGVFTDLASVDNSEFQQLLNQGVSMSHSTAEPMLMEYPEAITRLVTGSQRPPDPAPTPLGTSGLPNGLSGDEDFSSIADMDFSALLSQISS

B1: RelB (endogenous, BV-2 microglial cells) (natural protein, mouse (endogenous in BV-2), UniProt Q04863 1-558, looked up)
chain: MPSRRAARESAPELGALGSSDLSSLSLTVSRTTDELEIIDEYIKENGFGLDGTQLSEMPRLVPRGPASLSSVTLGPAAPPPPATPSWSCTLGRLVSPGPCPRPYLVITEQPKQRGMRFRYECEGRSAGSILGESSTEASKTLPAIELRDCGGLREVEVTACLVWKDWPHRVHPHSLVGKDCTDGVCRVRLRPHVSPRHSFNNLGIQCVRKKEIEAAIERKIQLGIDPYNAGSLKNHQEVDMNVVRICFQASYRDQQGHLHRMDPILSEPVYDKKSTNTSELRICRINKESGPCTGGEELYLLCDKVQKEDISVVFSTASWEGRADFSQADVHRQIAIVFKTPPYEDLEISEPVTVNVFLQRLTDGVCSEPLPFTYLPRDHDSYGVDKKRKRGLPDVLGELSSSDPHGIESKRRKKKPVFLDHFLPGHSSGLFLPPSALQPADSDFFPASISLPGLEPPGGPDLLDDGFAYDPSAPTLFTMLDLLPPAPPLASAVVGSGGAGATVVESSGPEPLSLDSFAAPGPGDVGTASLVGSNMFPNQYREAAFGGGLLSPGPEAT
notes: NF-kappa B family member RelB, endogenous in the murine microglial cell line BV-2; source: endogenous, BV-2 whole cell lysate
Question: For B1, which “fold increase of co-precipitated RelB (normalised to precipitated RelA) with Tat against untreated cells” value is on record?
Answer: The value was 4 fold.
